T1: human HPF1 F139S (human, UniProt Q9NWY4 1-346, F139S)
T1 sequence: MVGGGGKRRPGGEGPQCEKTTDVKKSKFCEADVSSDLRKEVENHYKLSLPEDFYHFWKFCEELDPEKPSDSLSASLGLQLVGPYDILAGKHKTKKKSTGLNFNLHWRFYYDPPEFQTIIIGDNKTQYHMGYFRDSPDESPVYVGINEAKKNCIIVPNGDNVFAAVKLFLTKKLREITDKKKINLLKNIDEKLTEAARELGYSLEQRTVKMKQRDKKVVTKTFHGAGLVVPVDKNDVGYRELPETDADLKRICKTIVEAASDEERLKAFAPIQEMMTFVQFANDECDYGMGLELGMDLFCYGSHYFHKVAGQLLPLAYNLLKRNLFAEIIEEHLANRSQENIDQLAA

T2: human HPF1 E138K (human, UniProt Q9NWY4 1-346, E138K)
T2 sequence: T1 sequence with E138K, S139F

T3: human HPF1 K216E (human, UniProt Q9NWY4 1-346, K216E)
T3 sequence: T1 sequence with S139F, K216E

T4: human HPF1 R239A (human, UniProt Q9NWY4 1-346, R239A)
T4 sequence: T1 sequence with S139F, R239A

T5: human HPF1 K307S (human, UniProt Q9NWY4 1-346, K307S)
T5 sequence: T1 sequence with S139F, K307S

T6: human HPF1 F280A (human, UniProt Q9NWY4 1-346, F280A)
T6 sequence: T1 sequence with S139F, F280A

B1: human HPF1 (histone PARylation factor 1), wild-type (natural protein)
chain: T1 sequence with S139F
B2: human PARP1-CAT ΔHD (661-678-GSGSGSGG-787-1014) (domain or fragment)
chain: TKSKLPKPVQDLIKMIFDGSGSGSGGKDPIDVNYEKLKTDIKVVDRDSEEAEIIRKYVKNTHATTHNAYDLEVIDIFKIEREGECQRYKPFKQLHNRRLLWHGSRTTNFAGILSQGLRIAPPEAPVTGYMFGKGIYFADMVSKSANYCHTSQGDPIGLILLGEVALGNMYELKHASHISKLPKGKHSVKGLGKTTPDPSANISLDGVDVPLGTGISSGVNDTSLLYNEYIVYDIAQVNLKYLLKLKFNFKTSLW

Assay [1] has as its target B2. In words: ITC; replicate 2. On the technique in general: Isothermal titration calorimetry measures the heat released or taken up as one component is titrated into another.
Assay [2] has as its target PARP1 D756A (human, UniProt P09874 1-1014, D756A). In words: ITC; in the presence of DNA.
The target in assay [3] is T1, human HPF1 F139S. The assay can be described thus: ITC; replicate 1.
For assay [4], the target named is T2, human HPF1 E138K. The assay can be described thus: ITC; replicate 1.
The target in assay [5] is T1, human HPF1 F139S. In words: ITC; replicate 2.
Assay [6] has as its target T3, human HPF1 K216E. In words: ITC; replicate 2.
In assay [7] the target is T2, human HPF1 E138K. In words: ITC; replicate 2.
Assay [8] addresses T4, human HPF1 R239A. In words: ITC; replicate 1.
The target in assay [9] is T5, human HPF1 K307S. The assay can be described thus: ITC; replicate 1.
Assay [10] deals with T6, human HPF1 F280A. The assay can be described thus: ITC; replicate 1.
Assay [11] addresses T4, human HPF1 R239A. The assay can be described thus: ITC; replicate 2.
Assay [12] has as its target T5, human HPF1 K307S. The assay can be described thus: ITC; replicate 2.
Assay [13] addresses T6, human HPF1 F280A. In words: ITC; replicate 2.

Where a chain is given by its changes, count along the chain named.

Regarding B1, the values for the Ka in assay [1] and in assay [2] were 642000 M⁻¹ and 333000 M⁻¹, respectively.

On to B2, for which the Ka stood at 400000 M⁻¹ in [3]; 617000 M⁻¹ in assay [4]; 440000 M⁻¹ in assay [5]; 725000 M⁻¹ in assay [6]; 583000 M⁻¹ in assay [7]; 432000 M⁻¹ in assay [8]. For the same molecule, the Ka was determined as 95700 M⁻¹ in [9]; 147000 M⁻¹ in assay [10]; 402000 M⁻¹ in [11]; 123000 M⁻¹ in assay [12]; 212000 M⁻¹ in assay [13].

For the origin of these results see article PMC7884425 (2021).
